Read-outs that look alike come from different tables or passages of the source. Where no end group is shown, it is not given here.
How the values were obtained:
[1] = system: human mast cell line LAD 2; experiment: TGR12 ligand-dependent degranulation of LAD 2 (β-hexosaminidase release); type: cell-based
Method: Human mast cell line LAD 2 was incubated in StemPro-34 medium (Invitrogen) supplemented with 100 ng/mL of stem cell factor (Immuno-Biological Laboratories Co., Ltd.). […] Subsequently, Tyrode's buffer containing 50 μL of TGR12 ligand (Peptide Institute, Inc.) in various concentrations was added and incubation was continued at 37° C. for further 20 minutes to induce degranulation. The degree of degranulation was determined by assaying the β-hexosaminidase activity in the degranulation assay supernatant as given below. The supernatant was dispensed into a 96-well plate and 0.1M citrate (pH 4.5)/1 mM 4-methyl umbelliferyl-2-acetamido-2-deoxy-beta-D-glucopyranoside (Wako Pure Chemical) in 5-fold of the supernatant was added thereto, followed by incubation at 37° C. for an hour. […] The activity was then assayed using Fusion-α (Perkin-Elmer). The β-hexosaminidase activity was also shown by the activity in the supernatant obtained by centrifugation after freezing and thawing LAD 2 four times, which was made total β-hexosaminidase activity in LAD 2, and the degree of degranulation was shown as the percentage of the β-hexosaminidase activity in the LAD 2 supernatant based on the total β-hexosaminidase activity.

TGR12 = type: cell-based, human
Method: CHO/dhfr^− cells (hereinafter CHO) were incubated in α-MEM (Invitrogen) supplemented with 10% fetal calf serum. After a termination codon in the TGR12-encoding nucleotide sequence was removed, a nucleotide sequence ligated with the nucleotide sequence encoding GFP (Wako Pure Chemical) [hereinafter briefly referred to as TGR12-GFP (DNA having the nucleotide sequence represented by SEQ ID NO: 31)] was incorporated into vector plasmid pAKKO-111H (the same vector plasmid as pAKKO1.11H described in Biochim. Biophys. Acta, 1219, 251-259 (1994)) for animal cell expression, and the vector plasmid was stably expressed to establish TGR12-GFP-expressed CHO cell line (hereinafter CHO-TGR12). CHO-TGR12 was incubated in nucleic acid-free α-MEM medium (Invitrogen) containing 10% dialyzed fetal calf serum.
CHO-TGR12 was plated in a 96-well plate at a density of 30,000 cells/well. After incubation overnight, the medium was discarded and 100 μL/well of assay buffer [Hank's Balanced Salt Solution (Invitrogen), 20 mM HEPES (Dojin Chemical Laboratory) and 2.5 mM Probenecid (Sigma)] containing 4 μM Fluo3-AM (Dojin Chemical Laboratory) was added, which was then allowed to stand for an hour at 37° C. […] After the cells were washed with assay buffer, fluorescence reflecting changes in intracellular calcium levels was assayed on FLIPR (Molecular Device). Ten seconds after initiation of the assay, 50 μL of a sample was added at a rate of 50 μL/second. Fluorescence measurement was taken every 1 second during the first 60 seconds and then every 6 seconds during the next 120 seconds; the highest fluorescence intensity over a 3 minute period was taken as the maximum activity under the stimulation condition, representing the mean value of 3 wells. The EC50 values were determined using Graphpad PRISM 4 (Graphpad Software).

human TGR12 (untagged) = target: T1, human TGR12 (untagged) (human, UniProt Q96LB1 1-330); experiment: cell-based or functional assay
T1 sequence: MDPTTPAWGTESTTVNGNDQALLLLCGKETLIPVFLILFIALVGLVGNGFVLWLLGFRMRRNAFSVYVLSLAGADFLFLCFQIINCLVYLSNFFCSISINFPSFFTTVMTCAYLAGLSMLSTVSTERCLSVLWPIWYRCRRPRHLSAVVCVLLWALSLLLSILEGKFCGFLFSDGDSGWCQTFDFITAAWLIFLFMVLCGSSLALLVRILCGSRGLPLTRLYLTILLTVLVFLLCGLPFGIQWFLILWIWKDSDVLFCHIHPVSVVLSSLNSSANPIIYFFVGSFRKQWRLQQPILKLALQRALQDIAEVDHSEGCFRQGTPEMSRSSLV

[2] = target: T2, TGR12-GFP (fused protein of human TGR12 and GFP, encoded by the DNA of SEQ ID NO: 31), stably expressed on … (human, UniProt Q96LB1 1-330); experiment: cell-based or functional assay
T2 sequence: T1 sequence

CC[C@H](C)[C@H](NC(=O)CNC(=O)[C@H](CC(=O)O)NC(=O)[C@H](CO)NC(=O)[C@@H](N)Cc1c[nH]cn1)C(=O)N[C@@H](Cc1ccccc1)C(=O)N[C@H](C(=O)N[C@@H](CC(=O)O)C(=O)N[C@@H](CO)C(=O)N[C@@H](Cc1ccc(O)cc1)C(=O)N[C@@H](CO)C(=O)N[C@@H](CCCNC(=N)N)C(=O)N[C@@H](Cc1ccc(O)cc1)C(=O)N[C@@H](CCCNC(=N)N)C(=O)N[C@@H](CCCCN)C(=O)N[C@@H](CCC(N)=O)C(=O)N[C@@H](CCSC)C(=O)N[C@@H](C)C(=O)N[C@H](C(=O)N[C@@H](CCCCN)C(=O)N[C@@H](CCCCN)C(=O)N[C@@H](Cc1ccc(O)cc1)C(=O)N[C@@H](CC(C)C)C(=O)N[C@@H](C)C(=O)N[C@@H](C)C(=O)N[C@H](C(=O)N[C@@H](CC(C)C)C(=O)NCC(=O)N[C@@H](CCCCN)C(=O)N[C@@H](CCCNC(=N)N)C(=O)N[C@@H](Cc1ccc(O)cc1)C(=O)N[C@@H](CCCCN)C(=O)N[C@@H](CCC(N)=O)C(=O)N[C@@H](CCCNC(=N)N)C(=O)N[C@H](C(=O)N[C@@H](CCCCN)C(=O)N[C@@H](CC(N)=O)C(=O)N[C@@H](CCCCN)C(N)=O)C(C)C)C(C)C)C(C)C)[C@@H](C)O [PACAP-38]
stimulated degranulation (β-hexosaminidase in supernatant, % of total) ([1]; LAD 2, 10 nM): 7.4%
stimulated degranulation (β-hexosaminidase in supernatant, % of total) ([1]; LAD 2, 30 nM): 24.8%
stimulated degranulation (β-hexosaminidase in supernatant, % of total) ([1]; LAD 2, 100 nM): 49.4%
stimulated degranulation (β-hexosaminidase in supernatant, % of total) ([1]; LAD 2, 300 nM): 65.8%
stimulated degranulation (β-hexosaminidase in supernatant, % of total) ([1]; LAD 2, 1 μM): 68.9%
stimulated degranulation (β-hexosaminidase in supernatant, % of total) ([1]; LAD 2, 3 μM): 63.3%
EC50 ([1]; LAD 2, read-out: EC50 in the degranulation on LAD 2): ~51 nM
maximum activity in the calcium increasing effect (TGR12; CHO-TGR12, 0.3 nM, highest fluorescence intensity over 3 minutes): 287
maximum activity in the calcium increasing effect (TGR12; CHO-TGR12, 3 nM): 410
maximum activity in the calcium increasing effect (TGR12; CHO-TGR12, 30 nM): 195
maximum activity in the calcium increasing effect (TGR12; CHO-TGR12, 300 nM): 23043
maximum activity in the calcium increasing effect (TGR12; CHO-TGR12, 3000 nM): 23315
EC50 (TGR12; CHO-TGR12, read-out: EC50 in the calcium increasing effect on CHO-TGR12): ~161 nM

B1: human cortistatin-17 (peptide, UniProt O00230 89-105, looked up)
peptide: DRMPCRNFFWKTFSSCK
modifications: not fully specified; ends and bridges not checked
degranulation of LAD 2 (beta-hexosaminidase release, % of total) at 10 nM (human TGR12 (untagged)): 1.6%
degranulation of LAD 2 (beta-hexosaminidase release, % of total) at 30 nM (human TGR12 (untagged)): 2.8%
degranulation of LAD 2 (beta-hexosaminidase release, % of total) at 100 nM (human TGR12 (untagged)): 26.5%
degranulation of LAD 2 (beta-hexosaminidase release, % of total) at 300 nM (human TGR12 (untagged)): 52.8%
degranulation of LAD 2 (beta-hexosaminidase release, % of total) at 1 µM (human TGR12 (untagged)): 62.2%
degranulation of LAD 2 (beta-hexosaminidase release, % of total) at 3 µM (human TGR12 (untagged)): 58.9%
maximum activity in the calcium increasing effect (FLIPR), RBL2H3-TGR12, at 1 nM (human TGR12 (untagged)): -2 fluorescence intensity
maximum activity in the calcium increasing effect (FLIPR), RBL2H3-TGR12, at 10 nM (human TGR12 (untagged)): 33 fluorescence intensity
maximum activity in the calcium increasing effect (FLIPR), RBL2H3-TGR12, at 100 nM (human TGR12 (untagged)): 1570 fluorescence intensity
maximum activity in the calcium increasing effect (FLIPR), RBL2H3-TGR12, at 1 µM (human TGR12 (untagged)): 11200 fluorescence intensity
maximum activity in the calcium increasing effect (FLIPR), RBL2H3-TGR12, at 10 µM (human TGR12 (untagged)): 12800 fluorescence intensity
maximum activity in the calcium increasing effect (FLIPR), CHO-TGR12, at 0.3 nM [2]: 67 fluorescence intensity
maximum activity in the calcium increasing effect (FLIPR), CHO-TGR12, at 3 nM [2]: 54 fluorescence intensity
maximum activity in the calcium increasing effect (FLIPR), CHO-TGR12, at 30 nM [2]: 94 fluorescence intensity
maximum activity in the calcium increasing effect (FLIPR), CHO-TGR12, at 300 nM [2]: 17900 fluorescence intensity
maximum activity in the calcium increasing effect (FLIPR), CHO-TGR12, at 3000 nM [2]: 23600 fluorescence intensity

From patent US20100068208A1, “Degranulation inhibitor” (priority 2005, published 2010)
